Assay results: US10010626B2, “Molecular constructs with targeting and effector moieties” (Immunwork Inc., priority 2015, dated 2018)

Assays:
CD20 = target: T1, CD20 (Homo sapiens, UniProt P11836); test: Apoptosis by anti-CD20 Fab in a 4-arm PEG linker; format: cell-based; conditions: PEG arm of about 1,000-1,200 daltons (about 25-30 ethylene glycol units)
T1 sequence (P11836 1-297): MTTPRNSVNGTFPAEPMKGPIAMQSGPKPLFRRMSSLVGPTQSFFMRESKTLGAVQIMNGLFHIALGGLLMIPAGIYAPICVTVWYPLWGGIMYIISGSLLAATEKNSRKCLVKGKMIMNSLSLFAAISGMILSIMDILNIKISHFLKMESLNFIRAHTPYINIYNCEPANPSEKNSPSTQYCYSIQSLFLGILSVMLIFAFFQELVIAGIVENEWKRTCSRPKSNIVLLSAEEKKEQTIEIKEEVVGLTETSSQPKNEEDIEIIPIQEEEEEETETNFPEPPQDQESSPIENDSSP

human TNF-α = human TNF-α (Homo sapiens, UniProt P01375); test: ELISA analysis of purified scFv of adalimumab; format: binding; conditions: compared with Expi-293F-produced scFv of adalimumab
Chain of human TNF-α (P01375 77-233 limits assumed): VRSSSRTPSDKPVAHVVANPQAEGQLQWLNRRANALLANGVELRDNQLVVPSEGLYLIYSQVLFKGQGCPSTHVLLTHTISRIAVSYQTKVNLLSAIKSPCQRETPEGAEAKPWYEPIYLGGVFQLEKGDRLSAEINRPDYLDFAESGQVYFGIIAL
Protocol: The expression plasmid was then transformed into Pichia pastoris by electroporation. To screen for high yield clones, ELISA was performed to measure the expression levels of scFv of adalimumab. Out of 480 transformants, five were selected for further protein induction and examination by SDS-PAGE. The clone scFv_1-A2 was selected for subsequent large-scale fermentation.
The high-yield clone scFv_1-A2 was inoculated in 100 mL of buffered glycerol-complex medium (BMGY, containing 1% yeast extract, 2% peptone, 100 mM K3PO4, 1.34 YNB, 0.4 mg/L biotin and 1% glycerol, pH 6.0) and cultured at 30° C., 200 rpm for 24 hours. On the next day, the culture was changed to a fermentation condition maintaining at 30° C., 30% of dissolved oxygen and pH 6.0. After being fermented for 24 hours, nitrogen source (YE, peptone) and methanol (0.5%, v/v) was added to induce protein expression. The culture supernatant was harvested for protein purification.

| Substance | causing apoptosis (CD20) | binding to human TNF-α (ELISA) (human TNF-α) |
| --- | --- | --- |
| anti-CD20 (rituximab) Fab in a 4-arm PEG linker: anti-CD20 (rituximab) Fab in a 4-arm PEG linker, PEG arm of about 1,000-1,200 daltons | effective in causing apoptosis | – |
| yeast-produced scFv of adalimumab: scFv of adalimumab produced by Pichia pastoris clone scFv_1-A2 | – | bound to human TNF-α equally well as Expi-293F-produced scFv of adalimumab |
